Source: EP4324849A1 (Emergence Therapeutics AG, dated 2024)

T1: homodimer recombinant Fc protein, IgV domain of human Nectin-4 fused to human Fc domain (human, UniProt Q96NY8 32-146, limits assumed)
T1 construct: also called Fc-Nectin-4; Fc fusion IgV Nectin-4 domain; not shown: human Fc domain
T1 sequence: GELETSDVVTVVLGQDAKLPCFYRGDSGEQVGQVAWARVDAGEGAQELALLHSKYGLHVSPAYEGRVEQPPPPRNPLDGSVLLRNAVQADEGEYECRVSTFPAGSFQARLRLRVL

T2: his-tagged recombinant extra cellular domain of the Nectin-4 protein (R&D systems/Biotechne) (Homo sapiens (Human), UniProt Q96NY8 32-349)
T2 construct: Bought protein; also called His-Nectin-4; recombinant his-tagged Nectin-4 EC; not shown: His tag
T2 sequence: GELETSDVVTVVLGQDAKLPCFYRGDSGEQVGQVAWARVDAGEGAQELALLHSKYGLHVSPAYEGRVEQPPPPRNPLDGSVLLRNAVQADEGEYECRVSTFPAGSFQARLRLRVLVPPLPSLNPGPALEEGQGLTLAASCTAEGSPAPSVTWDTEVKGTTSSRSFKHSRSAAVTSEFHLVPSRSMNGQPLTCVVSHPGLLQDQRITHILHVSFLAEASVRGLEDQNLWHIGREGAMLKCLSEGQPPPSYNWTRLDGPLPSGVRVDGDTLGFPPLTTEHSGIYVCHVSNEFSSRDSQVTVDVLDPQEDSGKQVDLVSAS


How the values were obtained:
[1] = target: T1, homodimer recombinant Fc protein, IgV …; assay: BLI (Octet Red96), antibody on FAB2G sensor, IgV-Fc homodimer as analyte, 1:2 bivalent analyte model
[2] = target: T2, his-tagged recombinant extra cellular …; assay: BLI (Octet Red96), His-Nectin-4 ECD as analyte
[3] = target: T2, his-tagged recombinant extra cellular …; assay: BLI (Octet Red96), antibody on AHC sensor, His-Nectin-4 ECD as analyte, 1:1 model

| Kd [1] [nM] | Kd [2] [nM] | koff [2] [s⁻¹] | kon [2] [M⁻¹ s⁻¹] | Kd [3] [nM] | Binder |
| --- | --- | --- | --- | --- | --- |
| 5.3 | 3.4 | 0.000928 | 275000 | 4.2 | Ch-5A12.2 (parental chimeric 5A12.2 monoclonal anti-Nectin-4 antibody) (antibody, V domains shown) VH: QIQLQQSGAELVKPGASVTLSCKTSGFTFNSMYISWLKQKPGQSLEWIAWIYAGTGGTRFNQKFTGKVQLTVDTSSSTAYMQFSSLTTDDSAIYYCAIRSGFVPMDYWGQGTSVTVSS VL: SIVMTQTPKFLLVSAGDRVTITCKASQSVSNDVAWYQQKPGQSPKLLIYYASNRYTGVPDRFTGSGYGTDFTFTISTVQAEDLAVYFCQQDYSSPWTFGGGTKLEIK |
| 12.9 |  |  |  | 5.2 | HA22 (Enfortumab), human monoclonal anti-Nectin-4 antibody (antibody, V domains shown) VH: EVQLVESGGGLVQPGGSLRLSCAASGFTFSSYNMNWVRQAPGKGLEWVSYISSSSSTIYYADSVKGRFTISRDNAKNSLSLQMNSLRDEDTAVYYCARAYYYGMDVWGQGTTVTVSS VL: DIQMTQSPSSVSASVGDRVTITCRASQGISGWLAWYQQKPGKAPKFLIYAASTLQSGVPSRFSGSGSGTDFTLTISSLQPEDFATYYCQQANSFPPTFGGGTKVEIK |
